The values below come from article PMC12046042.

pKd: −log10 of the molar value. Some results are limits rather than exact numbers.

Common to all, as to assay: SPR
For orientation: SPR reads the build-up and loss of mass on a sensor chip optically.

For assay [1], the target named is FcγRI (CD64) extracellular domain (UniProt P12314).
For assay [2], the target named is FcγRIIIa-158F.
Assay [3] has as its target FcγRIIIa-158V.
For assay [4], the target named is FcγRIIa-131H.
Assay [5] has as its target FcγRIIa-131R.
The target in assay [6] is FcγRIIb.

Chain of FcγRI (CD64) extracellular domain (P12314 16-292): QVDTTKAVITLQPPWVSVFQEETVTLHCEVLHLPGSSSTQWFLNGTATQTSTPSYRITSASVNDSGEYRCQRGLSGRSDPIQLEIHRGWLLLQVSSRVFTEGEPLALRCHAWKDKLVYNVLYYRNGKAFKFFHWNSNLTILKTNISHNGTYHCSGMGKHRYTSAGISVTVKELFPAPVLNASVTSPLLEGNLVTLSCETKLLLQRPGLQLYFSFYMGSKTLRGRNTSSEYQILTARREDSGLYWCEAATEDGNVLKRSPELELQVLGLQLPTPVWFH

As a reminder, the pKd is the Kd on a negative log10 scale, so that one unit is a factor of ten. Hu IgG1: the pKd was 10.19 in assay [1]; 5.85 in assay [2]; 6.70 in assay [3]; 6.22 in assay [4]; 6.10 in assay [5]; 5.36 in assay [6].
With Hu IgG4P, the pKd in assay [1] was 9.33; in assay [2] it was 5.00; in assay [3], 5.51; in assay [4] it was 5.39; in assay [5] it was 5.80; in assay [6], 5.80.
Turning to Hu IgG4PAA, the pKd in assay [1] was less than 6.70; in assay [2] it was less than 5.00; in assay [3] it was 5.05; in assay [4] it was less than 5.00; in assay [5], less than 5.00; in assay [6], less than 5.00.
